Results published in paper PMC8930625 (Journal of inorganic biochemistry, 2022).

T1: Methyl-Coenzyme M Reductase (MCR) chain A (Methanothermobacter marburgensis, UniProt P11558 1-550)
T1 sequence (looked up): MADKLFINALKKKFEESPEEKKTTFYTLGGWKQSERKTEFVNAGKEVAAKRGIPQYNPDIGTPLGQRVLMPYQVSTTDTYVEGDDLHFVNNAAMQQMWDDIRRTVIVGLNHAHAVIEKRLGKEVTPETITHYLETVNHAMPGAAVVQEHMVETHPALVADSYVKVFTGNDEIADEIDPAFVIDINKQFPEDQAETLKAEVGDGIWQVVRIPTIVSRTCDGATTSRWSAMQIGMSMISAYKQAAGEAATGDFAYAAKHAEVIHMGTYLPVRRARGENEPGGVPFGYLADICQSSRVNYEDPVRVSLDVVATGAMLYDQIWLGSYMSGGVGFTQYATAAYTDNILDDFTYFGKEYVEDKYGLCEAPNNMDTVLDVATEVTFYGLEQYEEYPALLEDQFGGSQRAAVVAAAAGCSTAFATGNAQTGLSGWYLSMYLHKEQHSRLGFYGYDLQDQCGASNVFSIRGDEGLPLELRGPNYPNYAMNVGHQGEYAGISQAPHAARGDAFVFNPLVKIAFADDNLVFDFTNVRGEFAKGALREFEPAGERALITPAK

B1: Methyl-Coenzyme M Reductase (MCR) chain C (natural protein, Methanothermobacter marburgensis, UniProt P11562 1-249, looked up)
chain: MAQYYPGTTKVAQNRRNFCNPEYELEKLREISDEDVVKILGHRAPGEEYPSVHPPLEEMDEPEDAIREMVEPIDGAKAGDRVRYIQFTDSMYFAPAQPYVRSRAYLCRYRGADAGTLSGRQIIETRERDLEKISKELLETEFFDPARSGVRGKSVHGHSLRLDEDGMMFDMLRRQIYNKDTGRVEMVKNQIGDELDEPVDLGEPLDEETLMEKTTIYRVDGEAYRDDVEAVEIMQRIHVLRSQGGFNLE
B2: Methyl-Coenzyme M Reductase (MCR) chain B (natural protein, Methanothermobacter marburgensis, UniProt P11560 1-443, looked up)
chain: MAKFEDKVDLYDDRGNLVEEQVPLEALSPLRNPAIKSIVQGIKRTVAVNLEGIENALKTAKVGGPACKIMGRELDLDIVGNAESIAAAAKEMIQVTEDDDTNVELLGGGKRALVQVPSARFDVAAEYSAAPLVTATAFVQAIINEFDVSMYDANMVKAAVLGRYPQSVEYMGANIATMLDIPQKLEGPGYALRNIMVNHVVAATLKNTLQAAALSTILEQTAMFEMGDAVGAFERMHLLGLAYQGMNADNLVFDLVKANGKEGTVGSVIADLVERALEDGVIKVEKELTDYKVYGTDDLAMWNAYAAAGLMAATMVNQGAARAAQGVSSTLLYYNDLIEFETGLPSVDFGKVEGTAVGFSFFSHSIYGGGGPGIFNGNHIVTRHSKGFAIPCVAAAMALDAGTQMFSPEATSGLIKEVFSQVDEFREPLKYVVEAAAEIKNEI
B3: Methyl-Coenzyme M Reductase (MCR) heterotrimer of chains A, B and C, MCRred1-silent Ni(II) form (complex, Methanothermobacter marburgensis)
chain 1: MADKLFINALKKKFEESPEEKKTTFYTLGGWKQSERKTEFVNAGKEVAAKRGIPQYNPDIGTPLGQRVLMPYQVSTTDTYVEGDDLHFVNNAAMQQMWDDIRRTVIVGLNHAHAVIEKRLGKEVTPETITHYLETVNHAMPGAAVVQEHMVETHPALVADSYVKVFTGNDEIADEIDPAFVIDINKQFPEDQAETLKAEVGDGIWQVVRIPTIVSRTCDGATTSRWSAMQIGMSMISAYKQAAGEAATGDFAYAAKHAEVIHMGTYLPVRRARGENEPGGVPFGYLADICQSSRVNYEDPVRVSLDVVATGAMLYDQIWLGSYMSGGVGFTQYATAAYTDNILDDFTYFGKEYVEDKYGLCEAPNNMDTVLDVATEVTFYGLEQYEEYPALLEDQFGGSQRAAVVAAAAGCSTAFATGNAQTGLSGWYLSMYLHKEQHSRLGFYGYDLQDQCGASNVFSIRGDEGLPLELRGPNYPNYAMNVGHQGEYAGISQAPHAARGDAFVFNPLVKIAFADDNLVFDFTNVRGEFAKGALREFEPAGERALITPAK
chain 2: MAKFEDKVDLYDDRGNLVEEQVPLEALSPLRNPAIKSIVQGIKRTVAVNLEGIENALKTAKVGGPACKIMGRELDLDIVGNAESIAAAAKEMIQVTEDDDTNVELLGGGKRALVQVPSARFDVAAEYSAAPLVTATAFVQAIINEFDVSMYDANMVKAAVLGRYPQSVEYMGANIATMLDIPQKLEGPGYALRNIMVNHVVAATLKNTLQAAALSTILEQTAMFEMGDAVGAFERMHLLGLAYQGMNADNLVFDLVKANGKEGTVGSVIADLVERALEDGVIKVEKELTDYKVYGTDDLAMWNAYAAAGLMAATMVNQGAARAAQGVSSTLLYYNDLIEFETGLPSVDFGKVEGTAVGFSFFSHSIYGGGGPGIFNGNHIVTRHSKGFAIPCVAAAMALDAGTQMFSPEATSGLIKEVFSQVDEFREPLKYVVEAAAEIKNEI
chain 3: MAQYYPGTTKVAQNRRNFCNPEYELEKLREISDEDVVKILGHRAPGEEYPSVHPPLEEMDEPEDAIREMVEPIDGAKAGDRVRYIQFTDSMYFAPAQPYVRSRAYLCRYRGADAGTLSGRQIIETRERDLEKISKELLETEFFDPARSGVRGKSVHGHSLRLDEDGMMFDMLRRQIYNKDTGRVEMVKNQIGDELDEPVDLGEPLDEETLMEKTTIYRVDGEAYRDDVEAVEIMQRIHVLRSQGGFNLE

Assays:
Test in all cases: crystal structure
[1] = target: T1, Methyl-Coenzyme M Reductase (MCR) chain …
[2] = target: B2
[3] = target: the molecule itself

Row | Binder | binding result [1] | binding result [2] | stoichiometry N [3]
1 | B1 | binds | binds | –
2 | B2 | binds | – | –
3 | B3 | – | – | 2
